{
  "source": "patent US20150057236",
  "key": {"[1]": {"system": "H3K9 succinyl peptide"}, "[2]": {"system": "H3K9 acetyl peptide"}, "[3]": {"system": "H3K9 malonyl peptide"}, "[4]": {"system": "ACS2 K628 (623-632 + WW) acetyl peptide"}, "[5]": {"system": "ACS2 K628 (623-632 + WW) succinyl peptide"}, "[6]": {"molecular_target": "GDH K503 (498-509 + WW) malonyl peptide (UniProt P00367)"}, "[7]": {"molecular_target": "H3 K9 (4-13 + WW) malonyl peptide (UniProt P68431)"}, "[8]": {"molecular_target": "GDH K503 (498-509 + WW) succinyl peptide (UniProt P00367)"}, "[9]": {"system": "ACS2 K628 (623-632 + WW) malonyl peptide"}, "[10]": {"system": "KQTAR(SuK)-AMC peptide"}, "[11]": {"molecular_target": "H3 K9 (4-13 + WW) acetyl peptide (UniProt P68431)"}, "[12]": {"molecular_target": "GDH K503 (498-509 + WW) acetyl peptide (UniProt P00367)"}, "[13]": {"molecular_target": "H3 K9 (4-13 + WW) succinyl peptide (UniProt P68431)"}},
  "note": "Marks after values point to notes of the source that are not given here.",
  "data": [
    {"substance": "Sirt5 H158Y", "values": [
      {"measurement": "Km for peptide (µM), desuccinylation", "setting": "[1]", "value": "ND (>750)*"},
      {"measurement": "kcat/Km (s^-1M^-1), desuccinylation", "setting": "[1]", "value": 75, "unit": "s^-1M^-1"}
    ]},
    {"substance": "Sirt5 R105M", "values": [
      {"measurement": "Km for peptide (µM), deacetylation", "setting": "[2]", "value": "ND (>750)*"},
      {"measurement": "kcat/Km (s^-1M^-1), deacetylation", "setting": "[2]", "value": 0.5, "unit": "s^-1M^-1"},
      {"measurement": "Km for peptide (µM), desuccinylation", "setting": "[1]", "value": "ND (>750)*"},
      {"measurement": "kcat/Km (s^-1M^-1), desuccinylation", "setting": "[1]", "value": 0.9, "unit": "s^-1M^-1"}
    ]},
    {"substance": "Sirt5 Y102F", "values": [
      {"measurement": "Km for peptide (µM), deacetylation", "setting": "[2]", "value": "ND (>750)*"},
      {"measurement": "kcat/Km (s^-1M^-1), deacetylation", "setting": "[2]", "value": 2, "unit": "s^-1M^-1"},
      {"measurement": "Km for peptide (µM), desuccinylation", "setting": "[1]", "value": "ND (>750)*"},
      {"measurement": "kcat/Km (s^-1M^-1), desuccinylation", "setting": "[1]", "value": 397, "unit": "s^-1M^-1"}
    ]},
    {"substance": "human Sirt5", "values": [
      {"measurement": "hydrolysis of acyl peptide (LC-MS)", "setting": "[3]", "value": "the malonyl and succinyl peptides were hydrolyzed significantly"},
      {"measurement": "Peptide Km (µM), deacetylation", "setting": "[4]", "value": "ND (>750)"},
      {"measurement": "kcat/Km (s^-1M^-1), deacetylation", "setting": "[4]", "value": 18, "unit": "s^-1M^-1"},
      {"measurement": "Peptide Km (µM), desuccinylation", "setting": "[5]", "value": 450, "unit": "µM"},
      {"measurement": "kcat (s^-1), desuccinylation", "setting": "[5]", "value": 0.268, "unit": "s⁻¹"},
      {"measurement": "kcat/Km (s^-1M^-1), desuccinylation", "setting": "[5]", "value": 600, "unit": "s^-1M^-1"},
      {"measurement": "Peptide Km (µM), demalonylation", "setting": "[6]", "value": 8.7, "unit": "µM"},
      {"measurement": "kcat (s^-1), demalonylation", "setting": "[6]", "value": 0.014, "unit": "s⁻¹"},
      {"measurement": "kcat/Km (s^-1M^-1), demalonylation", "setting": "[6]", "value": 1600, "unit": "s^-1M^-1"},
      {"measurement": "Km for acetyl peptide (µM)", "setting": "[2]", "value": "ND (>750)*"},
      {"measurement": "Km for peptide (µM), deacetylation", "setting": "[2]", "value": "ND (>750)*"},
      {"measurement": "hydrolysis of acyl peptide (LC-MS)", "setting": "[2]", "value": "with Sirt5, very little hydrolysis of the acetyl peptide was observed"},
      {"measurement": "kcat/Km (s^-1M^-1)", "setting": "[2]", "value": 2, "unit": "s^-1M^-1"},
      {"measurement": "kcat/Km (s^-1M^-1), deacetylation", "setting": "[2]", "value": 2, "unit": "s^-1M^-1"},
      {"measurement": "Km for peptide (µM), desuccinylation", "setting": "[1]", "value": 41, "unit": "µM"},
      {"measurement": "hydrolysis of acyl peptide (LC-MS)", "setting": "[1]", "value": "the malonyl and succinyl peptides were hydrolyzed significantly"},
      {"measurement": "kcat (s^-1), desuccinylation", "setting": "[1]", "value": 0.029, "unit": "s⁻¹"},
      {"measurement": "kcat/Km (s^-1M^-1), desuccinylation", "setting": "[1]", "value": 710, "unit": "s^-1M^-1"},
      {"measurement": "Peptide Km (µM), demalonylation", "setting": "[7]", "value": 6.1, "unit": "µM"},
      {"measurement": "kcat (s^-1), demalonylation", "setting": "[7]", "value": 0.037, "unit": "s⁻¹"},
      {"measurement": "kcat/Km (s^-1M^-1), demalonylation", "setting": "[7]", "value": 6100, "unit": "s^-1M^-1"},
      {"measurement": "Peptide Km (µM), desuccinylation", "setting": "[8]", "value": 14, "unit": "µM"},
      {"measurement": "kcat (s^-1), desuccinylation", "setting": "[8]", "value": 0.028, "unit": "s⁻¹"},
      {"measurement": "kcat/Km (s^-1M^-1), desuccinylation", "setting": "[8]", "value": 2000, "unit": "s^-1M^-1"},
      {"measurement": "Peptide Km (µM), demalonylation", "setting": "[9]", "value": 150, "unit": "µM"},
      {"measurement": "kcat (s^-1), demalonylation", "setting": "[9]", "value": 0.079, "unit": "s⁻¹"},
      {"measurement": "kcat/Km (s^-1M^-1), demalonylation", "setting": "[9]", "value": 520, "unit": "s^-1M^-1"},
      {"measurement": "percent hydrolysis in 3 hrs, 1 µM Sirt5 (HPLC)", "setting": "[10]", "value": "10% and 60% hydrolysis by 1 and 5 µM of Sirt5 in 3 hrs"},
      {"measurement": "percent hydrolysis in 3 hrs, 5 µM Sirt5 (HPLC)", "setting": "[10]", "value": "10% and 60% hydrolysis by 1 and 5 µM of Sirt5 in 3 hrs"},
      {"measurement": "Peptide Km (µM), deacetylation", "setting": "[11]", "value": "ND (>750)"},
      {"measurement": "kcat/Km (s^-1M^-1), deacetylation", "setting": "[11]", "value": 7.8, "unit": "s^-1M^-1"},
      {"measurement": "Peptide Km (µM), deacetylation", "setting": "[12]", "value": "ND (>750)"},
      {"measurement": "kcat/Km (s^-1M^-1), deacetylation", "setting": "[12]", "value": "< 2", "unit": "s^-1M^-1"},
      {"measurement": "Peptide Km (µM), desuccinylation", "setting": "[13]", "value": 5.8, "unit": "µM"},
      {"measurement": "kcat (s^-1), desuccinylation", "setting": "[13]", "value": 0.025, "unit": "s⁻¹"},
      {"measurement": "kcat/Km (s^-1M^-1), desuccinylation", "setting": "[13]", "value": 4300, "unit": "s^-1M^-1"}
    ]},
    {"substance": "human Sirt6", "values": [
      {"measurement": "hydrolysis of acyl peptide (LC-MS)", "setting": "[3]", "value": "Sirt6 and Sirt7 have no detectable activity on acetyl, malonyl, or succinyl peptides under the conditions tested"},
      {"measurement": "hydrolysis of acyl peptide (LC-MS)", "setting": "[2]", "value": "Sirt6 and Sirt7 have no detectable activity on acetyl, malonyl, or succinyl peptides under the conditions tested"},
      {"measurement": "hydrolysis of acyl peptide (LC-MS)", "setting": "[1]", "value": "Sirt6 and Sirt7 have no detectable activity on acetyl, malonyl, or succinyl peptides under the conditions tested"}
    ]}
  ]
}
